{
  "source": "paper doi:10.1101/2024.08.15.608188",
  "about": "“Myosin forces elicit an F-actin structural landscape that mediates mechanosensitive protein recognition” (bioRxiv, 2024)",
  "proteins": {"B1": {"name": "C-terminal actin-binding domain (ABD) of human α-catenin (AA 664-906) (domain or fragment, UniProt P35221 664-906, looked up)", "chain": "IAGQSARAIMAQLPQEQKAKIAEQVASFQEEKSKLDAEVSKWDDSGNDIIVLAKQMCMIMMEMTDFTRGKGPLKNTSDVISAAKKIAEAGSRMDKLGRTIADHCPDSACKQDLLAYLQRIALYCHQLNICSKVKAEVQNLGGELVVSGVDSAMSLIQAAKNLMNAVVQTVKASYVASTKYQKSQGMASLNLPAVSWKMKAPEKKPLVKREKQDETQTKIKRASQKKHVNPVQALSEFKAMDSI", "notes": "Tags were removed with TEV protease; also called α-catenin ABD; αE-catenin ABD; source: E. coli Rosetta2(DE3), purified (Ni-NTA, TEV cleavage, anion exchange, size exclusion); not shown: 6XHis, N-terminal, cleaved; strep tag, N-terminal, cleaved"}},
  "target": "the molecule itself",
  "assay": "cryo-EM structure; dual motor condition (surface-anchored myosin-5 and myosin-6, 1 μM ATP) on holey carbon grids; 0.6 μM F-actin, 1 μM α-catenin ABD applied in Motility Buffer (20 mM MOPS pH 7.4, 5 mM MgCl2, 0.1 mM EGTA, 1 mM DTT) for 30 s, 25 °C; sub-saturating α-catenin; consensus and 3DVA-sorted reconstructions",
  "data": [
    {"protein": "B1", "values": [
      {"measurement": "binding result", "value": "binds"}
    ]}
  ]
}
